Molecular target: the molecule itself
Test: cross-linking; SDS-PAGE of the purified CTD polypeptide: 16-kDa dimer band beside the 8-kDa monomer band; dimer formation stimulated by the oxidizing agent Cu(II)-(1,10-phenanthroline)3 and cleaved by dithiothreitol (disulfide bond)

B1: C-terminal domain (CTD) polypeptide of Arabidopsis thaliana metal tolerant protein 1 (AtMTP1) (domain or fragment, UniProt Q9ZT63 320-398, looked up)
chain: MESTPREIDATKLEKGLLEMEEVVAVHELHIWAITVGKVLLACHVNIRPEADADMVLNKVIDYIRREYNISHVTIQIER
stoichiometry N: 2

Reference: article PMC3668522 (FEBS Open Bio, 2013)
